Measurements from IntAct's records for PubMed 16956611.

B1: Histone deacetylase 7 (Mus musculus), Q8C2B3 (parent)
chain: MHSPGAGCPALQPDTPGSQPQPMDLRVGQRPTVEPPPEPALLTLQHPQRLHRHLFLAGLHQQQRSAEPMRLSMDPPMPELQGGQQEQELRQLLNKDKSKRSAVASSVVKQKLAEVILKKQQAALERTVHPSSPSIPYRTLEPLDTEGAARSVLSSFLPPVPSLPTEPPEHFPLRKTVSEPNLKLRYKPKKSLERRKNPLLRKESAPPSLRRRPAETLGDSSPSSSSTPASGCSSPNDSEHGPNPALGSEADGDRRTHSTLGPRGPVLGNPHAPLFLHHGLEPEAGGTLPSRLQPILLLDPSVSHAPLWTVPGLGPLPFHFAQPLLTTERLSGSGLHRPLNRTRSEPLPPSATASPLLAPLQPRQDRLKPHVQLIKPAISPPQRPAKPSEKPRLRQIPSAEDLETDGGGVGPMANDGLEHRESGRGPPEGRGSISLQQHQQVPPWEQQHLAGRLSQGSPGDSVLIPLAQVGHRPLSRTQSSPAAPVSLLSPEPTCQTQVLNSSETPATGLVYDSVMLKHQCSCGDNSKHPEHAGRIQSIWSRLQERGLRSQCECLRGRKASLEELQSVHSERHVLLYGTNPLSRLKLDNGKLTGLLAQRTFVMLPCGGVGVDTDTIWNELHSSNAARWAAGSVTDLAFKVASRELKNGFAVVRPPGHHADHSTAMGFCFFNSVAIACRQLQQHGKASKILIVDWDVHHGNGTQQTFYQDPSVLYISLHRHDDGNFFPGSGAVDEVGTGSGEGFNVNVAWAGGLDPPMGDPEYLAAFRIVVMPIAREFAPDLVLVSAGFDAAEGHPAPLGGYHVSAKCFGYMTQQLMNLAGGAVVLALEGGHDLTAICDASEACVAALLGNKVDPLSEESWKQKPNLSAIRSLEAVVRVHRKYWGCMQRLASCPDSWLPRVPGADAEVEAVTALASLSVGILAEDRPSERLVEEEEPMNL

Variants of: B1
Settings: with 1433e_mouse Ywhae

effect of a mutation on the interaction | Variant
disrupting interaction | S178E;S344E;S479E

Variants of: B1
Settings: with 1433e_mouse Ywhae
Remark: another data set of the same source

effect of a mutation on the interaction | Variant
disrupting interaction | S178E;S344E;S479E

Variants of: B1
Settings: with mef2a_mouse Mef2a

effect of a mutation on the interaction | Variant
disrupting interaction strength | S178A;S344A;S479A
